Data on three molecules can be found in patent US20200017592A1 (Regeneron, published 2020).

Assay [1] addresses T1, recombinant human IL-36R extracellular domain expressed with a C-terminal myc-myc-hexahistidine tag (human, UniProt Q9HB29 20-337).
T1 construct: also called hIL-36R-MMH; hIL-36R.mmH
As to the kind of experiment: SPR (Biacore 4000), mAb captured on anti-human Fc, 37°C. The method, then:
(§1) Equilibrium dissociation constants (KD values) for IL-36R binding to purified anti-IL-36R antibodies were determined using a real-time surface plasmon resonance biosensor using a Biacore 4000 instrument. The Biacore sensor surface was first derivatized by amine coupling with a monoclonal mouse anti-human Fc antibody (GE, # BR-1008-39) to capture anti-IL-36R monoclonal antibodies. All binding studies were performed in 0.01 M Hepes pH 7.4, 0.15 M NaCl, 3 mM EDTA, and 0.05% v/v Surfactant Tween-20 (HBS-ET running buffer) at 25° C. and 37° C. Different concentrations of IL-36R reagents, human IL-36R extracellular domain expressed with a C-terminal myc-myc-hexahistidine tag (hIL-36R-MMH), Macaca fascicularis IL-36R extracellular domain expressed with a C-terminal myc-myc-hexahistidine tag (mfIL-36R-MMH: mROR1 signal sequence (M1-A29). Macaca fascicularis IL36R_ecto domain (D20-A336).mycmycHis6), human IL-36R extracellular domain expressed with a C-terminal mouse IgG2a Fc tag (hIL-36R-mFc: mROR1 signal sequence (M1-A29)-human IL36R (D20-Y337)-mouse IgG2aFc (E98-K330)) or an in-line fusion protein of human IL-36R extracellular domain and IL1RAcP extracellular domain expressed with mouse IgG2a Fc tag (hIL-36R-Trap-mFc: mROR1 signal sequence (M1-A29)-human IL36R ecto domain (D20-Y337)-human IL1RacP ecto domain(S21-E359)-mouse IgG2aFc) in HBS-ET running buffer (ranging from 100 nM to 3.7 nM, 3-fold dilutions) were injected over the anti-IL-36R antibody captured surface for 4 minutes at a flow rate of 30 μL/minute and their dissociation in HBS-ET running buffer was monitored for 10 minutes. Kinetic association rate constant (kₐ) and dissociation rate constant (kd) were determined by fitting the real-time sensorgrams to a 1:1 binding model using Scrubber 2.0c curve fitting software. Binding dissociation equilibrium constants (KD) and dissociative half-lives (t_{1/2}) were calculated from the kinetic rate constants as: […]
A general note: Surface plasmon resonance follows binding to a sensor surface in real time, without labels.

The target in assay [2] is T2, full-length human IL-36R on cells (human, UniProt Q9HB29 20-575).
T2 sequence (looked up): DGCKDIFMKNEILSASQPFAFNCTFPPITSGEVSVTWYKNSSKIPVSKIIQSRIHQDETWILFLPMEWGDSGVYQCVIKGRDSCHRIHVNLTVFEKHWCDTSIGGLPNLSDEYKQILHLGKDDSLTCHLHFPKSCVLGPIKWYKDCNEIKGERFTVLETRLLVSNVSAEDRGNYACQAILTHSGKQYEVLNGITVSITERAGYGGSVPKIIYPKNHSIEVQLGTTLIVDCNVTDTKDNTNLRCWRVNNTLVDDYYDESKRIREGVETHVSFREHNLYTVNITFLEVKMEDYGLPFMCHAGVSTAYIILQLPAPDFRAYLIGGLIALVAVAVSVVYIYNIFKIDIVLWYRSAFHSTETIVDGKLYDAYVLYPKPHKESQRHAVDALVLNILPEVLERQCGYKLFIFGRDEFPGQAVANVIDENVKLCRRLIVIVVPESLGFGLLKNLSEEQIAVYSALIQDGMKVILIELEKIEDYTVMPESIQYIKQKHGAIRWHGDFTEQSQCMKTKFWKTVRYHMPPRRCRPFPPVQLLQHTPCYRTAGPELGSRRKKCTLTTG
As to the kind of experiment: cell-based or functional assay.

The target of assay [3] is T1, recombinant human IL-36R extracellular …. As to the kind of experiment: SPR (Biacore 4000), mAb captured on anti-human Fc, 25°C. As to the method:
as §1

The target of assay [4] is T3, Macaca fascicularis IL-36R on cells (Macaca fascicularis, UniProt A0A2K5WSK9 20-558).
T3 sequence: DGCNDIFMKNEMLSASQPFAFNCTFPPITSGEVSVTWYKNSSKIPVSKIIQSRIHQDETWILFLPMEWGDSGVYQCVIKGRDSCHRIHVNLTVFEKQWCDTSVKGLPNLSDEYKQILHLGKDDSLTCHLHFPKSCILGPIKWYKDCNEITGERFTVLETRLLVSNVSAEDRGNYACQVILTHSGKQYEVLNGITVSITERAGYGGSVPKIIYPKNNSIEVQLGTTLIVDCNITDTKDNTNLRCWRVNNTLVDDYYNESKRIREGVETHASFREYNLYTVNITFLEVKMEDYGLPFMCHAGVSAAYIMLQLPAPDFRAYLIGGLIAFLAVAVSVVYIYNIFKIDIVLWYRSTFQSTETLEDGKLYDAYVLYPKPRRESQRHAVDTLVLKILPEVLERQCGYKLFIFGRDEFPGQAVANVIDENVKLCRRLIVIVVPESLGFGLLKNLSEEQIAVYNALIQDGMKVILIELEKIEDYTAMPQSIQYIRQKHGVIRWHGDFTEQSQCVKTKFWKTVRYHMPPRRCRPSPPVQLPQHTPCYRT
Kind of assay: cell-based or functional assay.

A value given as a limit tells only on which side of the number the result lay.

B1: H4H14732P2 (antibody, human IgG4 S228P, kappa, V domains shown)
VH: EVQLVESGGGLVQPGRSLRLSCAASGFTFDDYAMHWVRQAPGKGLEWVSGINWAGYNIDYADSVKGRFTISRDNAKNSLYLQMNSLRAEDTALYYCAKDMRGFSYGFPFDYWGQGTLVTVSS
VL: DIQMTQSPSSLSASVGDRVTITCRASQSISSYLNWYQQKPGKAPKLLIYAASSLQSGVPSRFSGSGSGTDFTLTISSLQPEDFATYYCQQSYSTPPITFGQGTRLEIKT
Usually Kd stands for the concentration at which binding is half-saturated. One may read the koff as the rate constant with which the complex falls apart. Usually kon stands for a measure of how fast the partners come together. One may read the t½ as the time in which the quantity being followed falls by half. In the case of B1, in assay [1], the “100 nM hIL-36R-MMH Bound (RU)” value was 34 RU, the Kd came out at 27.6 nM, the koff was 0.00116 s⁻¹ and the kon was 42100 M⁻¹ s⁻¹. Besides, the “t½” value in assay [1] came to 10 min. Moreover, in assay [2], the “IC50 [M], NFκB-luciferase, 10 pM hIL-36γ” value is > 1e-08 M; the “IC50 [M], NFκB-luciferase, 15 pM hIL-36β” value was > 1e-08 M; the “IC50 [M], NFκB-luciferase, 20 pM hIL-36α” value is > 1e-08 M; the “Max Inhibition (%), NFκB-luciferase, 10 pM hIL-36γ” value (from here on “Max Inhibition (%) … 10 pM hIL-36γ”) stood at 69%. In assay [2], the “Max Inhibition (%), NFκB-luciferase, 15 pM hIL-36β” value was determined as 69% and the “Max Inhibition (%), NFκB-luciferase, 20 pM hIL-36α” value (shortened to “Max Inhibition (%) … 20 pM hIL-36α”) was 61%. In assay [3], the “100 nM hIL-36R-MMH Bound (RU)” value was 26 RU, the Kd is 13.9 nM, the koff was determined as 0.000569 s⁻¹ and the kon was 41000 M⁻¹ s⁻¹. For the same molecule, the “t½” value in assay [3] was 20 min. Besides, in assay [4], the “IC50 [M], NFκB-luciferase, 300 pM hIL-36γ” value (“IC50 [M] … 300 pM hIL-36γ” below) was > 1e-07 M; the “IC50 [M], NFκB-luciferase, 500 pM hIL-36α” value was > 1e-07 M; the “IC50 [M], NFκB-luciferase, 600 pM hIL-36β” value (“IC50 [M] … 600 pM hIL-36β” for short) was > 1e-07 M; the “Max Inhibition (%), NFκB-luciferase, 300 pM hIL-36γ” value (from here on “Max Inhibition (%) … 300 pM hIL-36γ”) worked out at 36%. In assay [4], the “Max Inhibition (%), NFκB-luciferase, 500 pM hIL-36α” value is 47% and the “Max Inhibition (%), NFκB-luciferase, 600 pM hIL-36β” value (“Max Inhibition (%) … 600 pM hIL-36β” below) worked out at 43%.

B2: H4H14760P2 (antibody, human IgG4 S228P, kappa, V domains shown)
VH: QVQLVESGGGVVQPGKSLRLSCAASGFTFSNYGIHWVRQAPGKGLEWVAIILYDGSNQHYADSVKGRFTISRDNSKNTLYLQMNNLRAEDTAVYYCARDLDLWSGYYTNGDGMDVWGQGTTVTVSS
VL: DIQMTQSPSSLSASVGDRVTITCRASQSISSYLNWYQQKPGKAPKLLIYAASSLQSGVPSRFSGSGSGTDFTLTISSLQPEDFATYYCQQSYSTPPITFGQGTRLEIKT
B2: in assay [1], the “100 nM hIL-36R-MMH Bound (RU)” value was found to be 83 RU, the Kd turned out to be 23 nM, the koff was 0.00208 s⁻¹ and the kon amounted to 90600 M⁻¹ s⁻¹. Besides, the “t½” value in assay [1] came out at 6 min. In assay [2], the “IC50 [M], NFκB-luciferase, 10 pM hIL-36γ” value was determined as 7e-10 M; the “IC50 [M], NFκB-luciferase, 20 pM hIL-36α” value is 4.9e-10 M; the “Max Inhibition (%) … 10 pM hIL-36γ” value is 49%; the “Max Inhibition (%) … 20 pM hIL-36α” value was 99%. In addition, in assay [3], the “100 nM hIL-36R-MMH Bound (RU)” value came to 61 RU, the Kd came to 6.11 nM, the koff came to 0.000415 s⁻¹ and the kon was 67900 M⁻¹ s⁻¹. Moreover, the “t½” value in assay [3] is 28 min. In assay [4], the “IC50 [M] … 300 pM hIL-36γ” value was > 1e-07 M; the “IC50 [M] … 600 pM hIL-36β” value was > 1e-07 M; the “Max Inhibition (%) … 300 pM hIL-36γ” value is 43%; the “Max Inhibition (%) … 600 pM hIL-36β” value came to 48%.

B3: H4H14757P (antibody, human IgG4 S228P, kappa, V domains shown)
VH: EVQLVESGGGLVQPGRSLRLSCTASGFTFDDYAMHWVRQAPGKGLEWVSGIRWNGGSIGYVDSVKGRFTISRDNAKKSLHLQMNSLKTEDTALYYCAKDIGDILTGFYGEYGMDVWGQGTTVTVSS
VL: DIQMTQSPSSLSASEGDRVTITCRASQSISSYLNWYQQKAGKAPNLLIYAASSLQSGVPSRFSGSGSGTEYTLTISSLQPEDFATYYCQQSYIIPYTFGQGTKLEIKR
Take B3: in assay [1], the “100 nM hIL-36R-MMH Bound (RU)” value is 129 RU, the Kd was found to be 5.18 nM, the koff is 0.00109 s⁻¹ and the kon came out at 210000 M⁻¹ s⁻¹. For the same molecule, the “t½” value in assay [1] is 11 min. For the same molecule, in assay [2], the “IC50 [M], NFκB-luciferase, 10 pM hIL-36γ” value was found to be 1.3e-10 M; the “IC50 [M], NFκB-luciferase, 20 pM hIL-36α” value came out at 1.8e-10 M; the “Max Inhibition (%) … 10 pM hIL-36γ” value was 87%; the “Max Inhibition (%) … 20 pM hIL-36α” value amounted to 101%. In assay [3], the “100 nM hIL-36R-MMH Bound (RU)” value was 94 RU, the Kd was determined as 2.18 nM, the koff was 0.000396 s⁻¹ and the kon was 182000 M⁻¹ s⁻¹. Besides, in assay [3], the “t½” value came out at 29 min. Moreover, in assay [4], the “IC50 [M] … 300 pM hIL-36γ” value was > 1e-07 M; the “IC50 [M], NFκB-luciferase, 500 pM hIL-36α” value is > 1e-07 M; the “IC50 [M] … 600 pM hIL-36β” value is > 1e-07 M; the “Max Inhibition (%) … 300 pM hIL-36γ” value was found to be 25%. Further, in assay [4], the “Max Inhibition (%), NFκB-luciferase, 500 pM hIL-36α” value stood at 29% and the “Max Inhibition (%) … 600 pM hIL-36β” value is 36%.
